Reference: publication PMC8809517, “Cofactor-independent RNA editing by a synthetic S-type PPR protein”
Changes are numbered by the printed parent chain.

T1: GFP-9S library array, motif 4 ND N98A;D124N (synthetic construct, N98A;D124N)
T1 chain: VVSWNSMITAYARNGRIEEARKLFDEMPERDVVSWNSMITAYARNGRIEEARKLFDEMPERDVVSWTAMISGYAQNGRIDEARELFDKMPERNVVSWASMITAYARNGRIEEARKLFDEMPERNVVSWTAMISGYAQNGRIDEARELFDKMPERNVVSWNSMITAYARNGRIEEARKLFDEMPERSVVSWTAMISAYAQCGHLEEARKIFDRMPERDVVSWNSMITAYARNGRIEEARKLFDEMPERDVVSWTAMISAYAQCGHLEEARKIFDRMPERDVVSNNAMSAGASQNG

T2: GFP-9S library array, motif 4 ND N98H;D124N (synthetic construct, N98H;D124N)
T2 chain: T1 chain with A98H

T3: GFP-9S library array, motif 4 ND N98S;D124T (synthetic construct, N98S;D124T)
T3 chain: T1 chain with A98S, N124T

T4: GFP-9S library array, motif 4 ND N98W;D124K (synthetic construct, N98W;D124K)
T4 chain: T1 chain with A98W, N124K

T5: GFP-9S library array, motif 4 ND N98S;D124G (synthetic construct, N98S;D124G)
T5 chain: T1 chain with A98S, N124G


How the values were obtained:
Experiment in all cases: high-throughput RNA pulldown from lysate on Ni-NTA beads; HRP: 50 mM Tris pH 8, 150 mM NaCl, 1 mM beta-mercaptoethanol, 50 ug/ml BSA, 3 ug/ml yeast RNA, 0.5% heparin; ITC and FP: Tris pH 8, 200 mM KCl, 5% glycerol; MST: 50 mM Tris pH 8, 200 mM NaCl, 1 mM DTT, BSA, heparin, 0.05% Tween 20
Details in all cases: tags: N-terminal His-eGFP
[1] = molecular target: T1, GFP-9S library array, motif 4 ND …
[2] = molecular target: T2, GFP-9S library array, motif 4 ND …
[3] = molecular target: T3, GFP-9S library array, motif 4 ND …
[4] = molecular target: T4, GFP-9S library array, motif 4 ND …
[5] = molecular target: T5, GFP-9S library array, motif 4 ND …

Binder	Kd ([1]; label: 5' Cy5) [µM]	Kd ([2]; label: 5' Cy5) [µM]	Kd ([3]; label: 5' Cy5) [µM]	Kd ([4]; label: 5' Cy5) [µM]	Kd ([5]; label: 5' Cy5) [µM]	Kd ([1]; label: 5' IRDye 800CW) [µM]	Kd ([2]; label: 5' IRDye 800CW) [µM]	Kd ([3]; label: 5' IRDye 800CW) [µM]	Kd ([4]; label: 5' IRDye 800CW) [µM]	Kd ([5]; label: 5' IRDye 800CW) [µM]
AUUACACGUGA (ssRNA) [Cy5-rpoA]	0.066	0.0361	0.187	0.0726	0.181					
AUUAGACGUGA (ssRNA) [Cy5-rpoA-G]	0.123	0.149	0.291	0.0481	0.157					
AUUAAACGUGA (ssRNA) [IR-rpoA-A]						0.137	0.189	0.0723	0.177	0.122
AUUAUACGUGA (ssRNA) [IR-rpoA-U]						0.044	0.0308	0.108	0.154	0.182
